# T1: DVU1063 response regulator (Desulfovibrio vulgaris Hildenborough, UniProt Q72D66 1-479)
# T1 sequence: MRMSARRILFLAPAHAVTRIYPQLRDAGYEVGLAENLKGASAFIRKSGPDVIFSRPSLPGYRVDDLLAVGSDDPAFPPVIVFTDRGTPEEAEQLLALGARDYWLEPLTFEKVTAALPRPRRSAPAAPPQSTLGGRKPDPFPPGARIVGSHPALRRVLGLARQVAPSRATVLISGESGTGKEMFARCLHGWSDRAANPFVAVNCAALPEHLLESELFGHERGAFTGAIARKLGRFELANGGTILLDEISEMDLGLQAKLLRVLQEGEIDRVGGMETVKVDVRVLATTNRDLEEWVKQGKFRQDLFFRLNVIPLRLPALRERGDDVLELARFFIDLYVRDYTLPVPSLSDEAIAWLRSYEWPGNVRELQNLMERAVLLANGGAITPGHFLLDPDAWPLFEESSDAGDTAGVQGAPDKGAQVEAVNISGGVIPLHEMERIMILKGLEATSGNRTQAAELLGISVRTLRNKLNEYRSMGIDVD
# T2: DVU1419 response regulator (Desulfovibrio vulgaris Hildenborough, UniProt Q72C65 1-459)
# T2 sequence: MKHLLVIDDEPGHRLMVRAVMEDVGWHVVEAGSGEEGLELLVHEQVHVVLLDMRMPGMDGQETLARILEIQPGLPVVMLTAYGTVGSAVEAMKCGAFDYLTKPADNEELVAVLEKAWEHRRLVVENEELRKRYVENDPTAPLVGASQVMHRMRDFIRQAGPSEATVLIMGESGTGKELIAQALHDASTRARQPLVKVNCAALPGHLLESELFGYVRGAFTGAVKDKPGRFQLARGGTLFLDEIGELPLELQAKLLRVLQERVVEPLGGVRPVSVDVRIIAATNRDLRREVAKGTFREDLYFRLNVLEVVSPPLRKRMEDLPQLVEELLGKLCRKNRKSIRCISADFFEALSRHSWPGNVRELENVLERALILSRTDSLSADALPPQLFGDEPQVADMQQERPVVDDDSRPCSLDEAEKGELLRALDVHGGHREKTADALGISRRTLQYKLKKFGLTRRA
# T3: DVU2114 response regulator (Desulfovibrio vulgaris Hildenborough, UniProt Q72A83 1-462)
# T3 sequence: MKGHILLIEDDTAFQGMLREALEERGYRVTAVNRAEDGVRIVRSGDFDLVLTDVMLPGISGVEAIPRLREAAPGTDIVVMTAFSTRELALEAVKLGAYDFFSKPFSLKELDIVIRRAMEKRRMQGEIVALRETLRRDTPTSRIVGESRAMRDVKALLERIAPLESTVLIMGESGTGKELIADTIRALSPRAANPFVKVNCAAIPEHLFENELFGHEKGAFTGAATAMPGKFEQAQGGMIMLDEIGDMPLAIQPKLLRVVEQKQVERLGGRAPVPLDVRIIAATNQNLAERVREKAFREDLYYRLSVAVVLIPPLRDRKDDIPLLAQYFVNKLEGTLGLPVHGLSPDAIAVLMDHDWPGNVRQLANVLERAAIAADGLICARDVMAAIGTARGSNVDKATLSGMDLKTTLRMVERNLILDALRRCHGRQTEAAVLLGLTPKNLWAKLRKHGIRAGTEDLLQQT
# B1: DVU1032 motif mut (dsDNA)
# DNA 1: GGCATGGTCGGGCACGTGTTTTCGATTGTATCCTG
# DNA 2: CAGGATACAATCGAAAACACGTGCCCGACCATGCC
# B2: DVU1418 motif mut (dsDNA)
# DNA 1: GCCGTGGCGTACTATGCCATCGTTTGCTCGTTCATGGTGC
# DNA 2: GCACCATGAACGAGCAAACGATGGCATAGTACGCCACGGC
# B3: DVU2116 motif mut (dsDNA)
# DNA 1: ACCGGGCCACTACACAAATCAATGCTGCCCATCGC
# DNA 2: GCGATGGGCAGCATTGATTTGTGTAGTGGCCCGGT
# Tests used:
# Assay in all cases: EMSA; 10 mM Tris-HCl pH 7.5, 1 mM DTT, 50 mM KCl, 5 mM MgCl2, 25% glycerol, 1 ug/ml poly dI-dC, 50-100 fmol biotinylated DNA, 25-30 C, 20 min
# Conditions in all cases: protein: recombinant; tags: C-terminal V5-6xHis; chain copies: 2; label: 5'-biotin top strand
# [1] = molecular target: T1, DVU1063 response regulator
# [2] = molecular target: T2, DVU1419 response regulator
# [3] = molecular target: T3, DVU2114 response regulator
binder,measurement,setting,value
B1,binding result,[1],no binding
B2,binding result,[2],no binding
B3,binding result,[3],no binding

# Reference: publication PMC3333781, “Systematic mapping of two component response regulators to gene targets in a model sulfate reducing bacterium”
